The supplement of paper PMC6755084

B1: F1*; the commonest letter at each place (parent)
chain: GAGACCGCAACTGAAAAGTTGTTATCACTTGTCGTAAGACACTTTGGATGGGTTGAAGTTCTGCACGTAGAAGCAAAAGGC

Variants of: B1
Test: fraction ligated after 30 min (ligated reads / total reads); higher = more ligase activity
Conditions: with F1*sub RNA substrate (template-directed ligation), 42 °C
Protocol: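 Chip-synthesised pool of F1* ligase ribozyme variants (all single and double substitutions, single, double and triple deletions in the catalytic core and GAA bulge, plus designed variants) was transcribed with T7 and reacted as a pool with excess substrate F1*sub for 30 min at 42 C in 50 mM EPPS pH 8.5, 25 mM MgCl2. Ligated and unligated bands were separated by PAGE, barcoded by RT and deep sequenced; fraction ligated = ligated reads / total reads per variant, relative activity = FL / FL of wild type (0.826). Sequences are the DNA template of the ribozyme.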

Variant | fraction ligated
T23A T25G | 0.737
T23A T29A | 0.826
T23A T29C | 0.797
T23A T29G | 0.82
T23A T30A | 0.797
T23A T30C | 0.793
T23A T30G | 0.803
T23A T32A | 0.859
T23A T32C | 0.771
T23A T32G | 0.829
T23A T35A | 0.827
T23A T35C | 0.811
T23A T35G | 0.817
T23A T43A | 0.803
T23A T43C | 0.783
T23A T43G | 0.81
T23A T44A | 0.819
T23A T44C | 0.784
T23A T44G | 0.801
T23A T45A | 0.373
T23A T45C | 0.222
T23A T45G | 0.0214
T23A T49A | 0.791
T23A T49C | 0.731

Variant | fraction ligated
T23A T49G | 0.827
T23C | 0.846
T23C A24C | 0.73
T23C A24G | 0.794
T23C A24T | 0.501
T23C A27C | 0.775
T23C A27G | 0.781
T23C A27T | 0.804
T23C A36C | 0.828
T23C A36G | 0.817
T23C A36T | 0.823
T23C A37C | 0.821
T23C A37G | 0.837
T23C A37T | 0.796
T23C A39C | 0.788
T23C A39G | 0.831
T23C A39T | 0.803
T23C A41C | 0.783
T23C A41G | 0.784
T23C A41T | 0.808
T23C A48C | 0.697
T23C A48G | 0.696
T23C A48T | 0.0663
T23C A56C | 0.518

Variant | fraction ligated
T23C A56G | 0.698
T23C A56T | 0.802
T23C A57C | 0.81
T23C A57G | 0.851
T23C A57T | 0.794
T23C C26A | 0.371
T23C C26G | 0.136
T23C C26T | 0.779
T23C C28A | 0.73
T23C C28G | 0.732
T23C C28T | 0.777
T23C C33A | 0.786
T23C C33G | 0.819
T23C C33T | 0.839
T23C C40A | 0.792
T23C C40G | 0.766
T23C C40T | 0.811
T23C C42A | 0.762
T23C C42G | 0.761
T23C C42T | 0.804
T23C G31A | 0.619
T23C G31C | 0.666
T23C G31T | 0.787
T23C G34A | 0.819

Variant | fraction ligated
T23C G34C | 0.774
T23C G34T | 0.804
T23C G38A | 0.815
T23C G38C | 0.802
T23C G38T | 0.803
T23C G46A | 0.8
T23C G46C | 0.738
T23C G46T | 0.614
T23C G47A | 0.806
T23C G47C | 0.0373
T23C G47T | 0.0952
T23C G50A | 0.632
T23C G50C | 0.258
T23C G50T | 0.782
T23C G55A | 0.783
T23C G55C | 0.469
T23C G55T | 0.786
T23C T25A | 0.582
T23C T25C | 0.782
T23C T25G | 0.672
T23C T29A | 0.82
T23C T29C | 0.779
T23C T29G | 0.766
T23C T30A | 0.802

Variant | fraction ligated
T23C T30C | 0.789
T23C T30G | 0.833
T23C T32A | 0.821
T23C T32C | 0.788
T23C T32G | 0.827
T23C T35A | 0.845
T23C T35C | 0.818
T23C T35G | 0.83
T23C T43A | 0.815
T23C T43C | 0.759
T23C T43G | 0.745
T23C T44A | 0.817
T23C T44C | 0.8
T23C T44G | 0.779
T23C T45A | 0.266
T23C T45C | 0.208
T23C T45G | 0.027
T23C T49A | 0.792
T23C T49C | 0.715
T23C T49G | 0.78
T23G | 0.855
T23G A24C | 0.773
T23G A24C A27G C28A C42G G47A | 0.812
T23G A24G | 0.091

Variant | fraction ligated
T23G A24T | 0.794
T23G A27C | 0.785
T23G A27G | 0.788
T23G A27T | 0.801
T23G A36C | 0.882
T23G A36G | 0.885
T23G A36T | 0.841
T23G A37C | 0.819
T23G A37G | 0.867
T23G A37T | 0.821
T23G A39C | 0.776
T23G A39G | 0.867
T23G A39T | 0.79
T23G A41C | 0.727
T23G A41G | 0.746
T23G A41T | 0.792
T23G A48C | 0.74
T23G A48G | 0.788
T23G A48T | 0.781
T23G A56C | 0.794
T23G A56G | 0.792
T23G A56T | 0.772
T23G A57C | 0.779
T23G A57G | 0.819

Variant | fraction ligated
T23G A57T | 0.812
T23G C26A | 0.789
T23G C26G | 0.74
T23G C26T | 0.82
T23G C28A | 0.789
T23G C28G | 0.791
T23G C28T | 0.782
T23G C33A | 0.866
T23G C33G | 0.848
T23G C33T | 0.893
T23G C40A | 0.873
T23G C40G | 0.812
T23G C40T | 0.864
T23G C42A | 0.835
T23G C42G | 0.829
T23G C42T | 0.838
T23G G31A | 0.849
T23G G31C | 0.849
T23G G31T | 0.868
T23G G34A | 0.802
T23G G34C | 0.799
T23G G34T | 0.794
T23G G38A | 0.803
